Read-outs that look alike come from different tables or passages of the source.
Tests used:
[1] = test system: TALEN 101238 (Xanthomonas (engineered)?); test: cell_activity; settings: paired with 101236, K562
[2] = test system: TALEN 101238a (Xanthomonas (engineered)?); test: cell_activity; settings: paired with 101236, K562; SELEX preference improved
[3] = test system: TALEN 101238b (Xanthomonas (engineered)?); test: cell_activity; settings: paired with 101236, K562; SELEX preference improved
[4] = test system: TALEN 101238c (Xanthomonas (engineered)?); test: cell_activity; settings: paired with 101236, K562; SELEX preference improved
[5] = test system: TALEN 101238d (Xanthomonas (engineered)?); test: cell_activity; settings: paired with 101236, K562
[6] = test system: TALEN 101238e (Xanthomonas (engineered)?); test: cell_activity; settings: paired with 101236, K562; SELEX not interpretable
[7] = test system: TALE 101042-BfiI (Xanthomonas/Bacillus (engineered)?); test: cell_activity; settings: paired with 101047-BfiI, K562
[8] = test system: TALE 101043-BfiI (Xanthomonas/Bacillus (engineered)?); test: cell_activity; settings: paired with 101047-BfiI, K562
[9] = test system: TALE TL_CTTC RD-RG-KG-AD (Xanthomonas (engineered)?); settings: ELISA; site composed
[10] = test system: TALE TL_CTTC RD-RG-MG-ND (Xanthomonas (engineered)?); settings: ELISA; site composed
[11] = test system: TALE TL_CTTC RD-RG-RG-KD (Xanthomonas (engineered)?); settings: ELISA; site composed
[12] = test system: TALE 101047-BfiI (Xanthomonas/Bacillus (engineered)?); test: cell_activity; settings: paired with 101043-BfiI, K562
[13] = test system: TALEN 101047 (R) (Xanthomonas (engineered)?); test: cell_activity; settings: paired with 101041, K562
[14] = test system: TALEN 102109 (R*) (Xanthomonas (engineered)?); test: cell_activity; settings: paired with 102204, K562
[15] = test system: TALEN 3-1 (Xanthomonas (engineered)?); test: cell_activity; settings: paired with 101041
[16] = test system: TALEN 4-1 (Xanthomonas (engineered)?); test: cell_activity; settings: paired with 101041
[17] = test system: TALEN Condition 3 lane 8 (Xanthomonas (engineered)?); test: cell_activity; settings: paired with 101041
[18] = test system: TALEN Condition 4 lane 64 (Xanthomonas (engineered)?); test: cell_activity; settings: paired with 101041
[19] = test system: TALEN 101664 (R551-C17-KKR) (Xanthomonas (engineered)?); test: cell_activity; settings: paired with 101662, 12 bp gap, K562
[20] = test system: TALE TL_TCAT AA-KD-KI-MG (Xanthomonas (engineered)?); settings: ELISA
[21] = test system: TALE TL_TCAT QG-AD-HI-KG (Xanthomonas (engineered)?); settings: ELISA
[22] = test system: TALE TL_TCAT QG-KD-KI-AA (Xanthomonas (engineered)?); settings: ELISA
[23] = test system: TALE TL_TCAT canonical (Xanthomonas (engineered)?); settings: ELISA, AFU 204
[24] = test system: TALEN 1-1 (Xanthomonas (engineered)?); test: cell_activity; settings: paired with 101047
[25] = test system: TALEN 101041 (L) (Xanthomonas (engineered)?); test: cell_activity; settings: paired with 101047, K562
[26] = test system: TALEN 101662 (L538-C17-ELD) (Xanthomonas (engineered)?); test: cell_activity; settings: paired with 101664, 12 bp gap, K562
[27] = test system: TALEN 102204 (L*) (Xanthomonas (engineered)?); test: cell_activity; settings: paired with 102109, K562
[28] = test system: TALEN 102297 (L538NC-C17-ELD) (Xanthomonas (engineered)?); test: cell_activity; settings: paired with 101664, 12 bp gap, K562
[29] = test system: TALEN 2-1 (Xanthomonas (engineered)?); test: cell_activity; settings: paired with 101047
[30] = test system: TALEN Condition 1 lane 40 (Xanthomonas (engineered)?); test: cell_activity; settings: paired with 101047
[31] = test system: TALEN Condition 2 lane 45 (Xanthomonas (engineered)?); test: cell_activity; settings: paired with 101047
[32] = test system: TALE 101048-BfiI (Xanthomonas/Bacillus (engineered)?); test: cell_activity; settings: paired with 101043-BfiI, K562
[33] = test system: CXA TALE KAK S11K (repeat 5) (Xanthomonas (engineered)?)
[34] = test system: CXA TALE KKD S11K (repeat 5) (Xanthomonas (engineered)?)
[35] = test system: CXA TALE KRD S11K (repeat 5) (Xanthomonas (engineered)?)
[36] = test system: CXA TALE KRI S11K (repeat 5) (Xanthomonas (engineered)?)
[37] = test system: CXA TALE NRD S11N (repeat 5) (Xanthomonas (engineered)?)
[38] = test system: CXA TALE NRI S11N (repeat 5) (Xanthomonas (engineered)?)
[39] = test system: CXA TALE SAK (Xanthomonas (engineered)?)
[40] = test system: CXA TALE SHD (Xanthomonas (engineered)?)
[41] = test system: CXA TALE SKD (Xanthomonas (engineered)?)
[42] = test system: CXA TALE SNG (Xanthomonas (engineered)?)
[43] = test system: CXA TALE SNI (pos 11-13) (Xanthomonas (engineered)?)
[44] = test system: CXA TALE SNN (Xanthomonas (engineered)?)
[45] = test system: CXA TALE SRD (Xanthomonas (engineered)?)
[46] = test system: CXA TALE SRI (Xanthomonas (engineered)?)
[47] = test system: TALE TR_ATAC CI-VA-HI-ND (Xanthomonas (engineered)?); settings: ELISA; site composed
[48] = test system: TALE TR_ATAC HI-VA-CI-ND (Xanthomonas (engineered)?); settings: ELISA; site composed
[49] = test system: TALE TR_ATAC KI-MG-HI-RD (Xanthomonas (engineered)?); settings: ELISA; site composed
[50] = test system: TALE TR_ATTG CI-KG-QG-HN (Xanthomonas (engineered)?); settings: ELISA; site composed
[51] = test system: TALE TR_ATTG CI-MG-KG-HN (Xanthomonas (engineered)?); settings: ELISA; site composed
[52] = test system: TALE TR_ATTG HI-RG-MG-HN (Xanthomonas (engineered)?); settings: ELISA; site composed
[53] = test system: TALE TR_CAGA AD-HI-GN-HI (Xanthomonas (engineered)?); settings: ELISA; site composed
[54] = test system: TALE TR_CAGA KD-HI-FN-HI (Xanthomonas (engineered)?); settings: ELISA; site composed
[55] = test system: TALE TR_CAGA ND-HI-HN-KI (Xanthomonas (engineered)?); settings: ELISA; site composed
[56] = test system: TALE TR_CAGC ND-KI-FN-AD (Xanthomonas (engineered)?); settings: ELISA
[57] = test system: TALE TR_CAGC RD-HI-GN-ND (Xanthomonas (engineered)?); settings: ELISA
[58] = test system: TALE TR_CAGC RD-HI-HN-ND (Xanthomonas (engineered)?); settings: ELISA
[59] = test system: TALE TR_CAGC canonical (Xanthomonas (engineered)?); settings: ELISA, AFU 649
[60] = test system: TALE TR_CCTG AD-RD-HG-HN (Xanthomonas (engineered)?); settings: ELISA; site composed
[61] = test system: TALE TR_CCTG ND-KD-HG-HN (Xanthomonas (engineered)?); settings: ELISA; site composed
[62] = test system: TALE TR_CCTG RD-ND-AA-HN (Xanthomonas (engineered)?); settings: ELISA; site composed
[63] = test system: TALE TR_CCTG canonical (Xanthomonas (engineered)?); settings: ELISA, AFU 1020; site composed
[64] = test system: TALE TR_TACA KG-KI-KD-CI (Xanthomonas (engineered)?); settings: ELISA; site composed
[65] = test system: TALE TR_TACA RG-HI-RD-KI (Xanthomonas (engineered)?); settings: ELISA; full site composed from anchor + subsite
[66] = test system: TALE TR_TACA VA-CI-ND-HI (Xanthomonas (engineered)?); settings: ELISA; full site composed from anchor + subsite
[67] = test system: TALE TR_TACA canonical (Xanthomonas (engineered)?); settings: ELISA, AFU 779; site composed

Substance PITX3 target of 101238 has an activity [1] of 34 % indels, an activity [2] of 54 % indels and an activity [3] of 50 % indels. For the same substance, the activity [4] was 44 % indels, the activity [5] was 43 % indels and the activity [6] was 22 % indels.
“TACACCTGCAGCTCT (double strand) [101042 half-site]” showed an activity [7] of 0.11 % indels.
Work on “TACACCTGCAGCTCTCAT (double strand) [101043 half-site]” yielded an activity [8] of 0.75 % indels.
“TCTTCATCCT (double strand) [TL CTTC target]” showed a binding signal (fold vs canonical) [9] of 8.22, a binding signal (fold vs canonical) [10] of 0.16 and a binding signal (fold vs canonical) [11] of 13.8.
For “TCTTCCAGAATTGATACT (double strand) [CCR5 R557 half-site]”, the activity [12] was 0.75 % indels, the activity [13] was 50.6 % indels and the activity [14] was 65.2 % indels. The activity [15] was 56.3 % NHEJ, the activity [16] was 59.5 % NHEJ and the activity [17] was 0 % NHEJ. For the same substance, the activity [18] was 0 % NHEJ.
Work on “TGATACTGACTGT (double strand) [CCR5 R551 half-site]” yielded an activity [19] of 59 % NHEJ.
In the case of “TTCATATCCT (double strand) [TL TCAT target]”, the binding signal (fold vs canonical) [20] is reported as 0.05, the binding signal (fold vs canonical) [21] is reported as 2.26 and the binding signal (fold vs canonical) [22] is reported as 2.34. It also gave a binding signal (fold vs canonical) [23] of 1.
In the case of “TTCATTACACCTGCAGCT (double strand) [CCR5 L538 half-site]”, the activity [24] is reported as 36.6 % NHEJ, the activity [25] is reported as 50.6 % indels and the activity [26] is reported as 59 % NHEJ. It also gave an activity [27] of 65.2 % indels, an activity [28] of 56.2 % NHEJ and an activity [29] of 64.1 % NHEJ. It also gave an activity [30] of 0 % NHEJ and an activity [31] of 0 % NHEJ.
Substance “TTCTTCCAGAATTGAT (double strand) [101048 half-site]” has an activity [32] of 0.27 % indels.
With “TTGACAATCCT (double strand) [CAA target]” the binding signal (normalized ELISA) [33] was 0.05, the binding signal (normalized ELISA) [34] was 0.25 and the binding signal (normalized ELISA) [35] was 0.48. It also gave a binding signal (normalized ELISA) [36] of 0.74, a binding signal (normalized ELISA) [37] of 0.07 and a binding signal (normalized ELISA) [38] of 0. For the same substance, the binding signal (normalized ELISA) [39] was 0.01, the binding signal (normalized ELISA) [40] was 0.38 and the binding signal (normalized ELISA) [41] was 0.14. It also gave a binding signal (normalized ELISA) [42] of 0.63, a binding signal (normalized ELISA) ([43]; flanking RVDs inferred from anchors) of 0.96 and a binding signal (normalized ELISA) [44] of 1.12. The binding signal (normalized ELISA) [45] was 0.26 and the binding signal (normalized ELISA) [46] was 0.51.
“TTGACATACT (double strand) [TR ATAC target]” gave a binding signal (fold vs canonical) [47] of 1.4, a binding signal (fold vs canonical) [48] of 1.36 and a binding signal (fold vs canonical) [49] of 0.47.
With “TTGACATTGT (double strand) [TR ATTG target]” the binding signal (fold vs canonical) [50] was 1.12, the binding signal (fold vs canonical) [51] was 1.22 and the binding signal (fold vs canonical) [52] was 0.
“TTGACCAGAT (double strand) [TR CAGA target]” gave a binding signal (fold vs canonical) [53] of 0.04, a binding signal (fold vs canonical) [54] of 1.3 and a binding signal (fold vs canonical) [55] of 1.28.
“TTGACCAGCT (double strand) [TR CAGC target]” showed a binding signal (fold vs canonical) [56] of 0, a binding signal (fold vs canonical) [57] of 0.4 and a binding signal (fold vs canonical) [58] of 1.52. It also gave a binding signal (fold vs canonical) [59] of 1.
Substance “TTGACCATCCT (double strand) [CCA target]” has a binding signal (normalized ELISA) [34] of 0.64, a binding signal (normalized ELISA) [35] of 0.85 and a binding signal (normalized ELISA) [36] of 0.28. It also gave a binding signal (normalized ELISA) [37] of 0.53, a binding signal (normalized ELISA) [40] of 1.29 and a binding signal (normalized ELISA) [41] of 0.5. For the same substance, the binding signal (normalized ELISA) [42] was 0.15, the binding signal (normalized ELISA) [43] was 0.06 and the binding signal (normalized ELISA) [44] was 0.01. It also gave a binding signal (normalized ELISA) [45] of 0.91 and a binding signal (normalized ELISA) [46] of 0.04.
“TTGACCCTGT (double strand) [TR CCTG target]” gave a binding signal (fold vs canonical) [60] of 1.3, a binding signal (fold vs canonical) [61] of 1.07 and a binding signal (fold vs canonical) [62] of 0.02. For the same substance, the binding signal (fold vs canonical) [63] was 1.
For “TTGACGATCCT (double strand) [CGA target]”, the binding signal (normalized ELISA) [33] was 0.28, the binding signal (normalized ELISA) [39] was 0.21 and the binding signal (normalized ELISA) [40] was 0.01. For the same substance, the binding signal (normalized ELISA) [42] was 0.11, the binding signal (normalized ELISA) [43] was 0.01 and the binding signal (normalized ELISA) [44] was 0.76.
“TTGACTACAT (double strand) [TR TACA target]” showed a binding signal (fold vs canonical) [64] of 0.48, a binding signal (fold vs canonical) [65] of 1.62 and a binding signal (fold vs canonical) [66] of 1.57. It also gave a binding signal (fold vs canonical) [67] of 1.
For “TTGACTATCCT (double strand) [CTA target]”, the binding signal (normalized ELISA) [40] was 0.12, the binding signal (normalized ELISA) [42] was 0.99 and the binding signal (normalized ELISA) [43] was 0.02. The binding signal (normalized ELISA) [44] was 0.03.
